In patent US12723078 (University of Texas, dated 2026):
Numbering of substitutions follows the chain as printed.

B1: B1-#115 (antibody, V domains shown)
VH: EQSVKESGGGLVQPEGSLTLTCTASGFSFSSSYWICWVRQAPGKGLEWIGCIATGTGSTYYANWVNGRFTMSKPSSTTVTLQMTTLTAADTATYFCARGGGYWSFSLWGPGTLVTISS
VL: ELVMTQTPSSVEAAVGGTVTNKCQASEDIYSNLAWYQQKPGQPPKLLIYGATTLASGVPSRFKGSGSGTEFTLTISDLECADAATYYCQAESNDVWAFGGGTEVVVK
notes: recombinant rabbit IgG
B2: B1-#7 (antibody, V domains shown)
VH: EQSLEESGGGLVKPGASLTVTCAVSGFSLNSYAITWVRQAPGKGLEYIGYIDTGASITDYASWAKGRFTISKTSSTTVTLEMTSLTDADTATYFCARGFSMFKLWGPGTLVTISS
VL: ELDLTQTPSSVSAAVGGTVTISCQASQSVYGNNRLAWYHQKPGQPPKRLIYLASTLDSGVPSRFKGAGSGTQFTLTISDLECDDAATYYCAGGYAGNFNAFGGGTEVEIK
notes: recombinant rabbit IgG
B3: B1-#125 (antibody, V domains shown)
VH: EQSLEESGGGLVQPEGSLTLTCTASGFSFTKNYYMCWVRQAPGKGLEWIGCIYAGSTNTFYASWAKGRFTISKASSTTVDLKMTSLTVADTATYFCARDFVSYLNLWGPGTLVTVSS
VL: ELDLTQTPSSSSAAVGGTVTINCQASQSVYNKNYLSWFQQKPGQPPKLLIYYASTLASGVPSRFKGSGSGTEFTLTISDVVCDDAATYYCAAYKGVSDDGISFGGGTEVEIK
notes: recombinant rabbit IgG
B4: B1-#196-2 (antibody, V domains shown)
VH: B3 VH with E1Q, Q2E, S3Q, E5V, A24D
VL: ELDMTQTPSSTSAAVGGTVTIKCQASQSVYNNNQLSWFQQKPGQPPKRLIYGASTLESGVPSRFSGSGSGTQFTLTISDLECDDAATYYCQGAVSSDYYPFGGGTEVEIK
notes: recombinant rabbit IgG
B5: B1-#173-2 (antibody, V domains shown)
VH: QSVEESGGDLVKPGASLTLTCTASGFDFSSNAYLCWVRQAPGKGLEWIGCIYDGTSGDTYYANWAKGRFTISRSSSTTVTLQMTSLTAADTATYFCARDTRSSNYYFNLWGPGTLVTISS
VL: ELVLTQTPSSTSAAVGGTVTINCQASQSVDNNKQLSWYQQKPGQPPKQLIYSASKLASGVPSRFKGSGSGTQFTLTISDLECDDAATYYCAGYYYSGSATDAWAFGGATEVEIN
notes: recombinant rabbit IgG
B6: B1-#224 (antibody, V domains shown)
VH: EQSVEESGGGLVQPEGSLTLTCTASGIDFSSGAWICWVRQAPGKGLELIACIFTTSGFTYYASWAKGRFTISKTSSTTVTLQMTSLTAADTATYFCARDIYSYGMDLWGPGTLVTISS
VL: ELVLTQTPSSVSEPVGGTVTIKCQASQSISSSYLAWYQQKPGQPPKFLIYSASTLASGVPSRFKGSGSGTEFTLTISDLECADAATYYCQSTYISSSNYGAAFGGGTEVEIK
notes: recombinant rabbit IgG
B7: B1-#98 (antibody, V domains shown)
VH: EQSLEESGGDLVKPEGSLTLTCTASGFSFSSSYWICWVRQAPGKGLEWIACVATGSGTTDYASWAKGRFTMSKTSSTTVTLQMTSLTVADTATYFCARIGAFYSFRLWGPGTLVTISS
VL: ELDLTQTPGSVEAAVGGTVTIKCQAGQSIYNYLSWYQQKPGQPPKLLIYSASTLESGVPPRFSGSGSGTEFTLTISDLECADAATYSCQNNYGIGSNYGPGFGGGTEVEIK
notes: recombinant rabbit IgG
B8: B1-#72-1 (antibody, V domains shown)
VH: QSVKESGGGLVQPEGSLALTCKASGIDLSNYWYMCWVRQAPGKGLEWIGCVATDSSRTHYATWAKGRFTVSKTSSTTVTLQMTSLTAADTATYFCARGSGASTNGVWWVMGDGMDLWGPGTLVTISS
VL: ELVMTQTPSSVSAAVGGTVTIKCQASPSISTYLSWYQQKPGQPPKRLINRASTLASGVPPRFKGSGAGTQFTLTISDLECADAATYYCQNNYHSGSSNGGGVAFGGGTEVEIK
notes: recombinant rabbit IgG
B9: B1-#128 (antibody, V domains shown)
VH: RAVGKESGGDLVTLGGSLKLSCKASGIDLSNFYYMCWVRQAPGKGLEWIGCVASDSSRTHYATWPKGRFTISKTSSTTVTLQMTSLTAADTATYFCARGSGASTNGVWWVMGDGMDLWGPGTLVTVSS
VL: B8 VL with V3D, P27Q, T31S, N49Y, R50K, A55P, A67S, Q70E, V102F, E109Q
notes: recombinant rabbit IgG
B10: B1-#110 (antibody, V domains shown)
VH: QSLEESGGDLVKPEGSLTLTCTASGFSFSSSYWICWVRQAPGKGLEWIGCIYAGNSANTYYASWAKGRFTISKTSSTTVTLQLTSLTAADTATYFCASRNGGAPDGLNLWGPGTLVTISS
VL: ELDLTQTPASVEAAVGGTVTIKCQASLNINSWLAWYQQKPGQPPKLLISYTSSLASGVPSRFKGSGSGTEYTLTINDLECADAATYYCQTTYFGTNGGGFGGGTEVEIK
notes: recombinant rabbit IgG
B11: B1-#3 (antibody, V domains shown)
VH: QSLEESEGDLVKPEGSLTLTCKASGFDFSSDAMCWVRQAPGKGLEWIGCIYNGDEITDHASWAKGRFTISKTSPTTVTLQMTSLTVADTATYFCARAVYSDGGAGYPYMYGMDLWGPGTLVTVSS
VL: ELDMTQTPASVEAAVGGTVTIKCQASQNIYSYLVWYQQKPGQPPKLLISKASTLASGVSSRFKGSGSGTEFTLTINDLECADAATYYCQTNYFSSTSHFGVFTFGGGTELEIK
notes: recombinant rabbit IgG
B12: B1-#18 (antibody, V domains shown)
VH: EQSVKESGGGLVKPGGTLTLTCIVSGFSLSRYAVTWVRQAPGKGPEWIGYIDTSSGNKDYANWVNGRFTISKTSSTTVTLQMTSLTAADTATYFCARGFSMFKLWGPGTLVTISS
VL: ELVMTQTPSSVSAAVGGTVTISCQASQSVYNNNNLAWYQQKPGQPPKRLIYSASTLDSGVPSRFSGSGSGTQFTLTISDLECDDAATYYCAGGYTYNINIFGGGTEVEIK
notes: recombinant rabbit IgG
B13: B1-#76 (antibody, V domains shown)
VH: EQSVEESGGGLVQPEGSLTLTCTASGFSFSGSCDMSWVRQAPGKGLEWIACIVLSNGNTYYAGWAQGRFTISKISSTTVTLEMTSLTAADTATYFCARERYPGAFSSGLDLWGQGTLVTVSS
VL: ELDLTQTPSPVSAAVGGTVTINCQASQIVANGRLAWYQQKPGQPPKLLIYATSTLASGVPSRFKGSGSGTQFTLTINGVQCDDAATYYCQGAYSSGDVRTFGGGTEVVVK
notes: recombinant rabbit IgG
B14: B1-#19 (antibody, V domains shown)
VH: EQSVEESGGGLVKPEGSLTLTCKASGLDFSSSYWSCWVRQTPGRGLEWIGCIDVGSSGGSYYASWARGRFTVSKGSSTTVTLQMTSLTAADTATYFCASTTTNVFGYDLWGPGTLVTVSS
VL: ELDLTQTPASVSEPVGGTVTIKCQASQNIYNNLAWYQQKPGQPPKLLIYYASTLASGVPPRFSGSGSGTEYTLTISDLECDDAATYYCQNNAGIYGGYGHGFGGGTEVVVK
notes: recombinant rabbit IgG
B15: B1-#41-1 (antibody, V domains shown)
VH: QSVKESGGDLVKPGASLTLTCTASGFSFSSSYWICWVRQAPGKGLEWIACIYAGSSGSTYYASWAKGRFTISKTSSTTVTLQMTSLTAADTATYFCARSTSGSYGAGLGLWGPGTLVTISS
VL: ELDMTQTASPVSGAVGGTVTIKCQASQNIYNNIGWYQQKPGQPPNLLIYGPSYLASGVPSRFKGSRSGTEYTLTISDLECADAATYYCQSDDWMSISPDIVFGGGTEVEIK
notes: recombinant rabbit IgG
B16: B1-#226 (antibody, V domains shown)
VH: QEQLVESGGGLVQPEGSLTLTCTASGFSFSSRQYISWVRRAPGKGLEWIGAIVTVNNKVHYANWAKGRFTISEASSTTVTLQMTSLTAADTATYFCARWRTFGLWGPGTLVTVSS
VL: ELVLTQTPSSKSVAVGDTVTINCQASENVYSNNYTSWFQQKPGQPPKQLLYYAAYRASGVPSRFKGSGSGTEFTLSISDVVCDDAATYYCSGHKDYSDDGSTFGGGTEVVVK
notes: recombinant rabbit IgG
B17: B1-#10 (antibody, V domains shown)
VH: EQSVEESGGGLVKPEGSLTLTCKASGLDFSSSYWICWVRQAPGKGLEWIACIDTGSSGSTYYASWAKGRFTVSKTSSTTVSLQMTSLTAADTATYFCASTPNSLGYDLWGPGTLVTISS
VL: ELDLTQTPASVSAAVGGTVTIKCQASQNIVSNLAWYQQKPGQRPKLLIYYASTLASGVPSRFKGSGSGTEYTLTISDLECADAATYYCQNNAGIYGNYGHGFGGGTELEIK
notes: recombinant rabbit IgG
B18: B1-#74 (antibody, V domains shown)
VH: QSLEESGGGLVKPGASLTLTCTASGFSLNRYYMCWVRQAPGKGLEWIGCIYSGSGSTYYASWAKGRFTISKTSSTTVTLQMTSLPAADTATYFCGRLDYRVIYAFNLWGPGTLVTISS
VL: ELVLTQTPASVSAAVGGTVTINCQASQSIGSGNLAWYQQKPGQPPKLLIYLASTLASGVPPRFKGSGSGTEFTLTISDLECDDAATYYCQYTYYGTTYDNAFGGGTELEIK
notes: recombinant rabbit IgG
B19: B1-#25 (antibody, V domains shown)
VH: EQSVKESGGGLVQPEGSLTLTCKVSGIDFNYYNYYYMCWVRQAPGKGLEWIGCMSTASANIYLASWAKGRFTISEASSTTVTLQMTSLTAADTATYFCAKSHGGDGGYGVVLWGPGTLVTISS
VL: ELDLTQTPFSVSAAVGGTVTIKCQASETISNRLAWYQQKPGQPPKLLIYSASTLESGVPSRFKGSGSGTEFTLTISDLECADAATYYCQSIRSSSGIVHPNTFGGGTEVEIK
notes: recombinant rabbit IgG
B20: B1-#176 (antibody, V domains shown)
VH: QSLEESEGGLVKPGGTLTLTCTASGFSFSSSYCMCWVRQAPGKGLELIACIYTDSSGATYYASWAKGRFTISKSSSTTITLQMTSLTAADTATYFCARGWDYEDPGYTDTTYFSLWGPGTLVTVSS
VL: ELDLTQTPSSVEAAVGGTVTIKCQASQTIYTNLAWYQQKPGQPPNLLIYAASTLASGVSSRFKGSGSGTEFTLTISDLECADAATYYCQSYYGSSTTGNGFGGGTEVEIK
notes: recombinant rabbit IgG

Columns and labels:
[1] = target: T1, recombinant LILRB1 (human, UniProt Q8NHL6 24-461); experiment: ELISA, coated recombinant LILRB1, antibody titration;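 also: serially diluted anti-LILRB1 antibodies incubated 60 min at 37 °C on plates coated with 50 ng/well recombinant protein, TMB colorimetric development read as absorbance at 450 nm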
T1 construct: LILRB1-Fc proteins were also made; also called LILRB1 recombinant proteins
T1 sequence (Q8NHL6 24-461 limits assumed): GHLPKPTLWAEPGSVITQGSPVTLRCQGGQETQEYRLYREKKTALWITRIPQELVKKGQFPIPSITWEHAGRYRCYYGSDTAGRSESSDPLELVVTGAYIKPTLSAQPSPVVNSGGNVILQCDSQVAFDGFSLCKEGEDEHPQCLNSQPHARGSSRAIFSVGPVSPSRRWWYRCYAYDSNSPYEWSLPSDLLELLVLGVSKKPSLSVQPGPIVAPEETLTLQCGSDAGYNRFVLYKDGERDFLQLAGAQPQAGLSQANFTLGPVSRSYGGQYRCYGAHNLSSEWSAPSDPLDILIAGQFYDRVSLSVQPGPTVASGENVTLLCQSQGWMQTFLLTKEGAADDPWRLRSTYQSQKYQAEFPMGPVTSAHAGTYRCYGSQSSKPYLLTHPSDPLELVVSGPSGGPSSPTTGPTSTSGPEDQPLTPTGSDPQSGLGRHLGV
Experimental: ELISA. LILRB1 recombinant proteins (50 ng/well, 100 μL per well) were coated on Corning 96-well ELISA plates at 37° C. for 4 hrs. Plates were blocked for 2 hrs at 37° C. with 5% non-fat milk. After washing with PBST, 100 μL of serial diluted anti-LILRB1 antibodies were added and incubated for 60 min at 37° C. […] Plates were washed again with PBST for another 5 times, then the immunoreactions were developed with TMB substrates (Sigma, Cat #T0440) and stopped by the addition of 2 M H_2SO_4 before the plate was read at 450 nm.

[2] = target: T1, recombinant LILRB1; experiment: BLI (Octet RED96), antibody on biosensor, recombinant LILRB1 in solution;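 also: Background-subtracted sensorgrams fitted with a one-to-one binding model, KD taken as koff over kon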
Experimental: Following a short baseline in kinetics buffer for 20 s, the loaded biosensors were exposed to solutions of recombinant LILRB1 in a range of concentrations (0-500 nM). After background was subtracted, data was fit to a 1:1 binding model to extract an association rate ($kon$) and dissociation rate ($koff$). The KD was calculated using the ratio $koff/kon$. […] All experiments were performed with shaking at 1,000 rpm. All raw data was processed using ForteBio Octet Data Analysis Software 9.0.

Binder	EC50 [1] [µg/mL]	Kd [2] [nM]	koff [2] [s⁻¹]	kon [2] [M⁻¹ s⁻¹]
B1	0.052	–	–	–
B2	0.0159	–	–	–
B3	0.0076	–	–	–
B4	0.151	–	–	–
B5	0.00656	1.37	0.000262	192000
B6	0.0109	–	–	–
B7	0.038	–	–	–
B8	0.011	3.14	0.000237	75700
B9	0.04	–	–	–
B10	0.0178	–	–	–
B11	0.0119	0.505	5.63e-05	112000
B12	0.0182	–	–	–
B13	0.0284	–	–	–
B14	0.0196	–	–	–
B15	0.0944	15.8	0.00506	320000
B16	0.00826	–	–	–
B17	0.0209	–	–	–
B18	0.13	16.1	0.00145	89900
B19	0.0132	–	–	–
B20	0.00224	0.619	5.59e-05	90300
